Experimental data from the supplement of paper PMC10567573.

B1: BTBD10 (parent)
chain: FVYENAKEGARNIRTSERVTLIVD

Variants of: B1
Assay: protein stability index of a GFP-peptide fusion (GPS, HEK-293T) (PSI 1-6); higher = more stable
Conditions: c terminus: a fixed tail appended
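Also: lentivirally expressed fusions sorted by FACS into six bins by GFP to DsRed ratio, PSI derived from sequencing read proportions per bin multiplied by bin number.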

For FVYENAKEGAANIRTSERVTLIVD [R11A], which protein stability index is on record?
The protein stability index was 2.29.

With FVYENAKEGASNIRTSERVTLIVD [R11S] as the variant, how does the protein stability index read?
The protein stability index was 2.18.

With FVYENAKEGACNIRTSERVTLIVD [R11C] as the variant, how does the protein stability index read?
Its protein stability index is 2.07.

Which protein stability index does the source give for FVYENAKEGAINIRTSERVTLIVD [R11I] here?
The protein stability index was 1.75.

For FVYENAKEGATNIRTSERVTLIVD [R11T], which protein stability index is on record?
Its protein stability index is 2.19.

For FVYENAKEGALNIRTSERVTLIVD [R11L], which protein stability index is on record?
Its protein stability index is 2.67.

Which protein stability index does the source give for FVYENAKEGANNIRTSERVTLIVD [R11N] here?
Its protein stability index is 1.83.

For FVYENAKEGAMNIRTSERVTLIVD [R11M], which protein stability index is on record?
Its protein stability index is 1.59.

For FVYENAKEGAKNIRTSERVTLIVD [R11K], which protein stability index is on record?
Its protein stability index is 1.9.

With FVYENAKEGARNIRTSQRVTLIVD [E17Q] as the variant, how does the protein stability index read?
Its protein stability index is 1.87.

For FVYENAKEGARNIRTSLRVTLIVD [E17L], which protein stability index is on record?
The protein stability index was 3.89.

Which protein stability index does the source give for FVYENAKEGARNIRTSFRVTLIVD [E17F] here?
The protein stability index was 3.19.

Which protein stability index does the source give for FVYENAKEGARNIRTSPRVTLIVD [E17P] here?
The protein stability index was 1.54.

Which protein stability index does the source give for FVYENAKEGARNIRTSGRVTLIVD [E17G] here?
The protein stability index was 3.65.

Which protein stability index does the source give for FVYENAKEGARNIRTSTRVTLIVD [E17T] here?
The protein stability index was 1.23.

With FVYRNAKEGARNIRTSERVTLIVD [E4R] as the variant, how does the protein stability index read?
The protein stability index was 1.91.

For FVYHNAKEGARNIRTSERVTLIVD [E4H], which protein stability index is on record?
Its protein stability index is 2.16.

For FVYPNAKEGARNIRTSERVTLIVD [E4P], which protein stability index is on record?
Its protein stability index is 1.69.

For FVYSNAKEGARNIRTSERVTLIVD [E4S], which protein stability index is on record?
The protein stability index was 1.66.

Which protein stability index does the source give for FVYNNAKEGARNIRTSERVTLIVD [E4N] here?
The protein stability index was 1.57.

Which protein stability index does the source give for FVYTNAKEGARNIRTSERVTLIVD [E4T] here?
The protein stability index was 2.18.

Which protein stability index does the source give for FVYEPAKEGARNIRTSERVTLIVD [N5P] here?
Its protein stability index is 2.52.

With FVYEAAKEGARNIRTSERVTLIVD [N5A] as the variant, how does the protein stability index read?
Its protein stability index is 1.9.

Which protein stability index does the source give for FVYEVAKEGARNIRTSERVTLIVD [N5V] here?
Its protein stability index is 1.63.

With FVYEFAKEGARNIRTSERVTLIVD [N5F] as the variant, how does the protein stability index read?
Its protein stability index is 1.9.

Which protein stability index does the source give for FVYEEAKEGARNIRTSERVTLIVD [N5E] here?
The protein stability index was 2.35.

For FVYEQAKEGARNIRTSERVTLIVD [N5Q], which protein stability index is on record?
The protein stability index was 2.64.

Which protein stability index does the source give for FVYENAAEGARNIRTSERVTLIVD [K7A] here?
The protein stability index was 2.23.

Which protein stability index does the source give for FVYENALEGARNIRTSERVTLIVD [K7L] here?
Its protein stability index is 1.42.

For FVYENAIEGARNIRTSERVTLIVD [K7I], which protein stability index is on record?
Its protein stability index is 2.5.

For FVYENAVEGARNIRTSERVTLIVD [K7V], which protein stability index is on record?
The protein stability index was 1.93.

With FVYENAHEGARNIRTSERVTLIVD [K7H] as the variant, how does the protein stability index read?
Its protein stability index is 1.95.

With FVYENASEGARNIRTSERVTLIVD [K7S] as the variant, how does the protein stability index read?
The protein stability index was 2.56.

With FVYENAYEGARNIRTSERVTLIVD [K7Y] as the variant, how does the protein stability index read?
The protein stability index was 1.75.

Which protein stability index does the source give for FVYENAGEGARNIRTSERVTLIVD [K7G] here?
The protein stability index was 1.99.

With FVYENATEGARNIRTSERVTLIVD [K7T] as the variant, how does the protein stability index read?
The protein stability index was 2.11.

With FVYENAKEGARNNRTSERVTLIVD [I13N] as the variant, how does the protein stability index read?
The protein stability index was 2.52.

With FVYENAKEGARNDRTSERVTLIVD [I13D] as the variant, how does the protein stability index read?
Its protein stability index is 2.52.

For FVYENAKEGARNARTSERVTLIVD [I13A], which protein stability index is on record?
The protein stability index was 1.77.

Which protein stability index does the source give for FVYENAKEGARNQRTSERVTLIVD [I13Q] here?
Its protein stability index is 2.38.

Which protein stability index does the source give for FVYENAKEGARNHRTSERVTLIVD [I13H] here?
Its protein stability index is 2.4.

Which protein stability index does the source give for FVYENAKEGARNKRTSERVTLIVD [I13K] here?
Its protein stability index is 2.

For FVYENAKEGARNYRTSERVTLIVD [I13Y], which protein stability index is on record?
Its protein stability index is 2.37.

Which protein stability index does the source give for FVYENAKEGARNGRTSERVTLIVD [I13G] here?
The protein stability index was 2.31.

With FVYENAKEGARNIRTSERVTFIVD [L21F] as the variant, how does the protein stability index read?
The protein stability index was 1.88.

Which protein stability index does the source give for FVYENAKEGARNIRTSERVTGIVD [L21G] here?
Its protein stability index is 2.56.

Which protein stability index does the source give for FVYENAKEGARNIRTSERVTMIVD [L21M] here?
The protein stability index was 1.99.

For FVYENAKEGARNIRTSERVTNIVD [L21N], which protein stability index is on record?
The protein stability index was 2.63.

With FVYENAKEGARNIRTSERVTSIVD [L21S] as the variant, how does the protein stability index read?
The protein stability index was 2.32.

Which protein stability index does the source give for FVYENAKEGARNIRTSERVTAIVD [L21A] here?
The protein stability index was 2.34.

With FVAENAKEGARNIRTSERVTLIVD [Y3A] as the variant, how does the protein stability index read?
The protein stability index was 2.08.

With FVRENAKEGARNIRTSERVTLIVD [Y3R] as the variant, how does the protein stability index read?
The protein stability index was 2.73.

For FVFENAKEGARNIRTSERVTLIVD [Y3F], which protein stability index is on record?
The protein stability index was 2.12.

With FVVENAKEGARNIRTSERVTLIVD [Y3V] as the variant, how does the protein stability index read?
The protein stability index was 2.22.

With FVPENAKEGARNIRTSERVTLIVD [Y3P] as the variant, how does the protein stability index read?
Its protein stability index is 1.72.

Which protein stability index does the source give for FVNENAKEGARNIRTSERVTLIVD [Y3N] here?
Its protein stability index is 2.48.

Which protein stability index does the source give for FVMENAKEGARNIRTSERVTLIVD [Y3M] here?
Its protein stability index is 2.2.

For FVIENAKEGARNIRTSERVTLIVD [Y3I], which protein stability index is on record?
The protein stability index was 2.26.

Which protein stability index does the source give for FVDENAKEGARNIRTSERVTLIVD [Y3D] here?
The protein stability index was 3.22.

For FVEENAKEGARNIRTSERVTLIVD [Y3E], which protein stability index is on record?
Its protein stability index is 3.75.

With FCYENAKEGARNIRTSERVTLIVD [V2C] as the variant, how does the protein stability index read?
The protein stability index was 2.33.

With FGYENAKEGARNIRTSERVTLIVD [V2G] as the variant, how does the protein stability index read?
Its protein stability index is 3.31.

For FSYENAKEGARNIRTSERVTLIVD [V2S], which protein stability index is on record?
The protein stability index was 3.27.

Which protein stability index does the source give for FQYENAKEGARNIRTSERVTLIVD [V2Q] here?
Its protein stability index is 3.07.

For FWYENAKEGARNIRTSERVTLIVD [V2W], which protein stability index is on record?
Its protein stability index is 1.97.

Which protein stability index does the source give for FPYENAKEGARNIRTSERVTLIVD [V2P] here?
Its protein stability index is 3.53.

With FKYENAKEGARNIRTSERVTLIVD [V2K] as the variant, how does the protein stability index read?
Its protein stability index is 3.06.

For FIYENAKEGARNIRTSERVTLIVD [V2I], which protein stability index is on record?
Its protein stability index is 2.37.

For FVYENAKEGARNIRTSERVTLIVL [D24L], which protein stability index is on record?
Its protein stability index is 2.03.

Which protein stability index does the source give for FVYENAKEGARNIRTSERVTLIVA [D24A] here?
Its protein stability index is 1.49.

For FVYENAKEGARNIRTSERVTLIVF [D24F], which protein stability index is on record?
The protein stability index was 2.88.

With FVYENAKEGARNIRTSERVTLIVG [D24G] as the variant, how does the protein stability index read?
The protein stability index was 1.82.

With FVYENAKEGARNIRTSERVTLIVT [D24T] as the variant, how does the protein stability index read?
Its protein stability index is 2.5.

With FVYENAKEGARNIRTSERVTLIVR [D24R] as the variant, how does the protein stability index read?
Its protein stability index is 1.93.

For FVYENAKEGARNIRTSERVTLIVP [D24P], which protein stability index is on record?
Its protein stability index is 2.06.

For FVYENAKEGARNIRTSERVTLIVK [D24K], which protein stability index is on record?
The protein stability index was 1.72.

Which protein stability index does the source give for FVYENAKEGARNIRTSERVTLIVH [D24H] here?
The protein stability index was 1.66.

With FVYENAKEGARNIRTSERVTLIVI [D24I] as the variant, how does the protein stability index read?
Its protein stability index is 2.95.

With FVYENAKEGARNIRTSERVTLIVY [D24Y] as the variant, how does the protein stability index read?
The protein stability index was 2.01.

With FVYENAKEGARNIRHSERVTLIVD [T15H] as the variant, how does the protein stability index read?
The protein stability index was 2.15.

Which protein stability index does the source give for FVYENAKEGARNIRYSERVTLIVD [T15Y] here?
The protein stability index was 1.39.

With FVYENAKEGARNIRGSERVTLIVD [T15G] as the variant, how does the protein stability index read?
The protein stability index was 2.36.

For FVYENAKEGARNIRDSERVTLIVD [T15D], which protein stability index is on record?
Its protein stability index is 2.37.

Which protein stability index does the source give for FVYENAKEGARNIRLSERVTLIVD [T15L] here?
The protein stability index was 1.47.

With FVYENAKEGARNIRFSERVTLIVD [T15F] as the variant, how does the protein stability index read?
The protein stability index was 1.99.

For FVYENAKEGARNIRASERVTLIVD [T15A], which protein stability index is on record?
Its protein stability index is 2.26.

For FVYENAKEGARNIRMSERVTLIVD [T15M], which protein stability index is on record?
The protein stability index was 1.97.

With FVYENAKEGARNIRTSERVQLIVD [T20Q] as the variant, how does the protein stability index read?
The protein stability index was 2.18.

Which protein stability index does the source give for FVYENAKEGARNIRTSERVSLIVD [T20S] here?
The protein stability index was 2.27.

Which protein stability index does the source give for FVYENAKEGARNIRTSERVPLIVD [T20P] here?
Its protein stability index is 3.04.

With FVYENAKEGARNIRTSERVNLIVD [T20N] as the variant, how does the protein stability index read?
Its protein stability index is 2.56.

For FVYENAKEGARNIRTSERVCLIVD [T20C], which protein stability index is on record?
Its protein stability index is 2.74.

With FVYENAKEGARNIRTSERVFLIVD [T20F] as the variant, how does the protein stability index read?
Its protein stability index is 2.63.

With FVYENAKEGARNIRTSERVMLIVD [T20M] as the variant, how does the protein stability index read?
The protein stability index was 1.82.
